# Test results published in patent US20230398224A1 (Novartis, published 2023).
# Positions of bridges follow the written chain, without caps; N, C: chain ends. Non-standard residues stand in square brackets, D forms with d. Groups on a side chain read outwards from the residue. int‑CC7 = mannose-6-phosphonate M6PR ligand; tri‑GalNAc ASGPR ligand = not defined here; Bip = N[C@@H](Cc1ccc(-c2ccccc2)cc1)C(=O)O; NMeF = CN[C@@H](Cc1ccccc1)C(=O)O; Tic = O=C(O)[C@@H]1Cc2ccccc2CN1; int‑CC6 = not defined here; NMeA = CN[C@@H](C)C(=O)O; Sar = CNCC(=O)O
# T1: Purified FHR3 with C-terminal biotinylated Avitag (human, UniProt Q02985 19-330, biotin on the C-terminal Avitag)
# T1 construct: Immobilised on a NeutrAvidin NLC chip for SPR; also called complement factor H-related protein 3; hFHR3; not shown: C-terminal biotinylated Avitag
# T1 sequence (looked up): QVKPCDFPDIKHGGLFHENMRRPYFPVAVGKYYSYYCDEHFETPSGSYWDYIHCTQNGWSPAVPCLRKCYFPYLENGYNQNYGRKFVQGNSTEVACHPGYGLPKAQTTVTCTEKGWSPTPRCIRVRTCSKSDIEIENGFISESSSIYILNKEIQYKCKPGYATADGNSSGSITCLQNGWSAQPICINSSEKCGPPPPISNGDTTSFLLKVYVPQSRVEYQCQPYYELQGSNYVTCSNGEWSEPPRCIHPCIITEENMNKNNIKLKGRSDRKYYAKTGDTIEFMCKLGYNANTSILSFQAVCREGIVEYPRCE
# B1: Bifunctional compound (BFC-8) (other)
# peptide: {CH2CO}-FVPTT[Bip][NMeA][Bip][NMeA]EAPCGK([Lys(4-oxopentanoyl)-int‑CC7])-NH2
# modifications: thioether N-13; not fully specified; also: further groups not given here
# notes: BFC-8 and BFC-9 come from the same reaction of int-DD6 with int-CC7
# B2: Bifunctional compound (BFC-9) (other)
# peptide: {CH2CO}-FVPTT[Bip][NMeA][Bip][NMeA]EAPCGK([Lys(4-oxopentanoyl)-int‑CC7])-NH2
# modifications: thioether N-13; not fully specified; also: further groups not given here
# notes: as for B1
# B3: Bifunctional compound (BFC-4) (other)
# peptide: {CH2CO}-FVPTT[Bip][NMeA][Bip][NMeA]EAPCGK-NH2
# modifications: thioether N-13; not fully specified (residue 15); also: int-DD2 linker joined by two oximes to int-CC7
# B4: Cyclic peptide (C5) (peptide)
# peptide: {CH2CO}-FVPTT[Bip][NMeA][Bip][NMeA]EAPCGK(4‑oxopentanoyl)-NH2
# modifications: thioether N-13
# notes: also called PCSK9 ligand (C5); PCSK9 receptor ligand compound (C5)
# B5: Bifunctional compound (BFC-2) (other)
# peptide: {CH2CO}-FVPTT[Bip][NMeA][Bip][NMeA]EAPCGK([4‑formylbenzoyl-int‑CC6])-NH2
# modifications: thioether N-13; reading uncertain; also: 4-formylbenzoyl joined to int-CC6 as oxime
# B6: Cyclic peptide compound (C16) (peptide)
# peptide: {CH2CO}-FR[NMeF]SVNY[Sar]RK[Tic]N[NMeF]CG-NH2
# modifications: thioether N-14
# SMILES: CC(C)[C@@H]1NC(=O)[C@H](CO)NC(=O)[C@H](Cc2ccccc2)N(C)C(=O)[C@H](CCCNC(=N)N)NC(=O)[C@H](Cc2ccccc2)NC(=O)CSC[C@@H](C(=O)NCC(N)=O)NC(=O)[C@H](Cc2ccccc2)N(C)C(=O)[C@H](CC(N)=O)NC(=O)[C@@H]2Cc3ccccc3CN2C(=O)[C@H](CCCCN)NC(=O)[C@H](CCCNC(=N)N)NC(=O)CN(C)C(=O)[C@H](Cc2ccc(O)cc2)NC(=O)[C@H](CC(N)=O)NC1=O
# notes: Synthetic cyclic peptide; also called FHR3 receptor ligand compound (C16)
# B7: Cyclic peptide compound (C12) (peptide)
# peptide: {CH2CO}-FR[NMeF]SKNY[Sar]RD[Tic]N[NMeF]CG-NH2
# modifications: thioether N-14; also: classes: D-residues
# notes: Synthetic cyclic peptide with non-natural residues; also called FHR3 receptor ligand compound (C12)
# B8: Cyclic peptide compound (C15) (peptide)
# peptide: {CH2CO}-F[NMeF][NMeA]SLHW[NMeA]RKDRCG-NH2
# modifications: thioether N-13
# notes: also called FHR3 receptor ligand compound (C15)
# B9: Cyclic peptide compound (C13) (peptide)
# peptide: {CH2CO}-FK[NMeA]SLHW[NMeA]RPDRCG-NH2
# modifications: thioether N-13
# SMILES: CC(C)C[C@@H]1NC(=O)[C@H](CO)NC(=O)[C@H](C)N(C)C(=O)[C@H](CCCCN)NC(=O)[C@H](Cc2ccccc2)NC(=O)CSC[C@@H](C(=O)NCC(N)=O)NC(=O)[C@H](CCCNC(=N)N)NC(=O)[C@H](CC(=O)O)NC(=O)[C@@H]2CCCN2C(=O)[C@H](CCCNC(=N)N)NC(=O)[C@H](C)N(C)C(=O)[C@H](Cc2c[nH]c3ccccc23)NC(=O)[C@H](Cc2c[nH]cn2)NC1=O
# notes: Synthetic cyclic peptide; also called FHR3 receptor ligand compound (C13)
# B10: Cyclic peptide compound (C14) (peptide)
# peptide: {CH2CO}-FR[NMeF]SVNYKRS[Tic]N[NMeF]CG-NH2
# modifications: thioether N-14
# SMILES: CC(C)[C@@H]1NC(=O)[C@H](CO)NC(=O)[C@H](Cc2ccccc2)N(C)C(=O)[C@H](CCCNC(=N)N)NC(=O)[C@H](Cc2ccccc2)NC(=O)CSC[C@@H](C(=O)NCC(N)=O)NC(=O)[C@H](Cc2ccccc2)N(C)C(=O)[C@H](CC(N)=O)NC(=O)[C@@H]2Cc3ccccc3CN2C(=O)[C@H](CO)NC(=O)[C@H](CCCNC(=N)N)NC(=O)[C@H](CCCCN)NC(=O)[C@H](Cc2ccc(O)cc2)NC(=O)[C@H](CC(N)=O)NC1=O
# notes: Synthetic cyclic peptide; also called FHR3 receptor ligand compound (C14)
# Biological target: T2, M6PR
# T2 construct: also called mannose-6-phosphate receptor; M6P receptor
# Test: SPR, no details given; binding is through the mannose phosphonate moiety of the conjugate
row,Binder,Kd [nM]
1,B1,480
2,B2,170
3,B3,110

# Biological target: T3, Purified recombinant full length human PCSK9 with C-terminal biotinylated Avitag (human, UniProt Q8NBP7 31-692, biotin on the C-terminal Avitag)
# T3 construct: also called hPCSK9; proprotein convertase subtilisin/kexin type 9; not shown: C-terminal biotinylated Avitag
# Test: SPR, ProteOn XPR36; biotinylated human PCSK9 on NeutrAvidin NLC chip
# Description: SPR was used to obtain the binding data for PCSK9 receptor ligand compound (C5), either alone or as part of the bifunctional compounds (BFC1), respectively.
# (§1) SPR Binding experiments were performed on a Proteon XPR36 instrument (Bio-Rad Laboratories). Purified recombinant full length human PCSK9 with C-terminal biotinylated Avitag was used for the assay. Biotinylated human PCSK9 was incubated with fivefold molar excess of bifunctional compound (BFC1) or compound (C₅), and immobilized onto a Neutravidin coated sensor chip. (NLC chip, Bio-Rad Laboratories, Inc). After conditioning the chip by injecting running buffer (20 mM Tris pH7.5, 300 mM NaCl, 25 mM CaCl₂, 2 mM betamercaptoethanol, 2% DMSO and 0.05% Tween-20) at a flow rate of 0.1 mL/min for 240 s, PCSK9 protein was injected at a protein concentration of 0.02 mg/ml in running buffer with fivefold molar excess of bifunctional compound and a flow rate of 0.03 mL/min followed by 4 washes with running buffer with 1 μM of bifunctional compound (0.1 mL/min for 60 seconds each).
# T3 sequence (Q8NBP7 31-692): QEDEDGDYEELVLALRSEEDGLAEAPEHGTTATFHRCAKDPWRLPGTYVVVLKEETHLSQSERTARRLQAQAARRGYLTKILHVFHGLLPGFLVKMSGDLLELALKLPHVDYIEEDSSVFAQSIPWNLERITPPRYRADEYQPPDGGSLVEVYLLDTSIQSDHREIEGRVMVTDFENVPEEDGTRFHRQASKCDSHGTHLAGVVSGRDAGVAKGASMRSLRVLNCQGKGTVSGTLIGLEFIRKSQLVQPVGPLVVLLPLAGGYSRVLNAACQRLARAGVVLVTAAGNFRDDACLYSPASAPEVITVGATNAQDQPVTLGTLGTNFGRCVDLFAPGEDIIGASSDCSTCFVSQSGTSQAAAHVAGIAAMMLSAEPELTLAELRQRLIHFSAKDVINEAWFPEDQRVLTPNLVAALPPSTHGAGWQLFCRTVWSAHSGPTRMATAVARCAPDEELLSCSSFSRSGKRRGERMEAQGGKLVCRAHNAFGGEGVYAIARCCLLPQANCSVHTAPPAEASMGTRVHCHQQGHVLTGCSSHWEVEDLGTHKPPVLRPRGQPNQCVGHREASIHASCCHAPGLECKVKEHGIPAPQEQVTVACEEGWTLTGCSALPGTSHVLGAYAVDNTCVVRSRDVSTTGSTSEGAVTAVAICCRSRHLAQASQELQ
row,Binder,Kd [nM]
1,B4,1.2
2,B3,4.1
3,B5,9.2

# Biological target: T1, Purified FHR3 with C-terminal …
# Test: SPR, ProteOn XPR36; biotinylated FHR3 on NeutrAvidin NLC chip
# Description: SPR was used to obtain the binding data for FHR3 receptor ligands compounds (C12), (C13), (C14), (C15) and (C16), either alone or as part of the bifunctional compounds (BFC13), (BFC14), (BFC15), (BFC16) and (BFC17), respectively.
# as §1, with “FHR3” for “recombinant full length human PCSK9”, “FHR3” for “human PCSK9”, “compounds (BFC13), (BFC14), (BFC15), (BFC16)” for “compound (BFC1)”, “(BFC17), or compounds (C12), (C13), (C14), (C15) or (C16),” for “compound (C₅),”, “FHR3” for “PCSK9 protein”
row,Binder,Kd [nM]
1,"{CH2CO}-FR[NMeF]SVNY[Sar]RK([dPEG9 diacid-tri‑GalNAc ASGPR ligand])[Tic]N[NMeF]CG-NH2 (other, thioether N-14; reading uncertain) [Bifunctional compound (BFC-17)]",55
2,B6,13
3,B7,8
4,B8,15
5,B9,48
6,"{CH2CO}-FK([dPEG9 diacid-tri‑GalNAc ASGPR ligand])[NMeA]SLHW[NMeA]RPDRCG-NH2 (other, thioether N-13; reading uncertain) [Bifunctional compound (BFC-14)]",80
7,B10,162

# Biological target: T2, M6PR
# Test: SPR, no details given; binding is through the mannose-6-phosphate moiety of the conjugate
row,Binder,Kd [nM]
1,B5,7.19
